How the values were obtained:
[1] = substrate: N[C@@H](CCC(=O)N[C@@H](CSSC[C@H](NC(=O)CC[C@H](N)C(=O)O)C(=O)NCC(=O)O)C(=O)NCC(=O)O)C(=O)O; assay: (§1) TP_TRANSPORTER: uptake in membrane vesicles from GLC4/ADR cells; assay type: functional, cell membranes, GLC-4/ADR, Membrane vesicle
[2] = substrate: N[C@@H](CCC(=O)N[C@H](CSc1ccc([N+](=O)[O-])cc1[N+](=O)[O-])C(=O)NCC(=O)O)C(=O)O; assay: as §1; assay type: functional, cell membranes, GLC-4/ADR, Membrane vesicle

B1: Multidrug resistance-associated protein 1 (Homo sapiens) (protein)
chain: MALRGFCSADGSDPLWDWNVTWNTSNPDFTKCFQNTVLVWVPCFYLWACFPFYFLYLSRHDRGYIQMTPLNKTKTALGFLLWIVCWADLFYSFWERSRGIFLAPVFLVSPTLLGITMLLATFLIQLERRKGVQSSGIMLTFWLVALVCALAILRSKIMTALKEDAQVDLFRDITFYVYFSLLLIQLVLSCFSDRSPLFSETIHDPNPCPESSASFLSRITFWWITGLIVRGYRQPLEGSDLWSLNKEDTSEQVVPVLVKNWKKECAKTRKQPVKVVYSSKDPAQPKESSKVDANEEVEALIVKSPQKEWNPSLFKVLYKTFGPYFLMSFFFKAIHDLMMFSGPQILKLLIKFVNDTKAPDWQGYFYTVLLFVTACLQTLVLHQYFHICFVSGMRIKTAVIGAVYRKALVITNSARKSSTVGEIVNLMSVDAQRFMDLATYINMIWSAPLQVILALYLLWLNLGPSVLAGVAVMVLMVPVNAVMAMKTKTYQVAHMKSKDNRIKLMNEILNGIKVLKLYAWELAFKDKVLAIRQEELKVLKKSAYLSAVGTFTWVCTPFLVALCTFAVYVTIDENNILDAQTAFVSLALFNILRFPLNILPMVISSIVQASVSLKRLRIFLSHEELEPDSIERRPVKDGGGTNSITVRNATFTWARSDPPTLNGITFSIPEGALVAVVGQVGCGKSSLLSALLAEMDKVEGHVAIKGSVAYVPQQAWIQNDSLRENILFGCQLEEPYYRSVIQACALLPDLEILPSGDRTEIGEKGVNLSGGQKQRVSLARAVYSNADIYLFDDPLSAVDAHVGKHIFENVIGPKGMLKNKTRILVTHSMSYLPQVDVIIVMSGGKISEMGSYQELLARDGAFAEFLRTYASTEQEQDAEENGVTGVSGPGKEAKQMENGMLVTDSAGKQLQRQLSSSSSYSGDISRHHNSTAELQKAEAKKEETWKLMEADKAQTGQVKLSVYWDYMKAIGLFISFLSIFLFMCNHVSALASNYWLSLWTDDPIVNGTQEHTKVRLSVYGALGISQGIAVFGYSMAVSIGGILASRCLHVDLLHSILRSPMSFFERTPSGNLVNRFSKELDTVDSMIPEVIKMFMGSLFNVIGACIVILLATPIAAIIIPPLGLIYFFVQRFYVASSRQLKRLESVSRSPVYSHFNETLLGVSVIRAFEEQERFIHQSDLKVDENQKAYYPSIVANRWLAVRLECVGNCIVLFAALFAVISRHSLSAGLVGLSVSYSLQVTTYLNWLVRMSSEMETNIVAVERLKEYSETEKEAPWQIQETAPPSSWPQVGRVEFRNYCLRYREDLDFVLRHINVTINGGEKVGIVGRTGAGKSSLTLGLFRINESAEGEIIIDGINIAKIGLHDLRFKITIIPQDPVLFSGSLRMNLDPFSQYSDEEVWTSLELAHLKDFVSALPDKLDHECAEGGENLSVGQRQLVCLARALLRKTKILVLDEATAAVDLETDDLIQSTIRTQFEDCTVLTIAHRLNTIMDYTRVIVLDKGEIQEYGAPSDLLQQRGLFYSMAKDAGLV
B1 gave a Km [1] of 43 µM and a Km [2] of 1.2 µM.

From ChEMBL document CHEMBL2074115, “Anthracyclines modulate multidrug resistance protein (MRP) mediated organic anion transport” (Biochim Biophys Acta, 1997)
